System: ischemic stroke (MCAO)
Experiment: Transient focal ischemia (MCAO) model of stroke
Type: in vivo, rat
Conditions: rats; rTPA 6 hours after stroke, with or without bryostatin-1 2 hours later
Experimental: A transient animal model of focal ischemia was used for these experiments. The middle cerebral artery (MCA) was surgically dissected and occluded in anesthetized rats by ligature, followed by reperfusion after a defined period (about 2 hours). Animal models transient ischemia via occlusion of the MCA (MCAO) are described in, e.g., Sicard and Fisher, Exp. & Transl. Stroke Med. (2009), vol. 1, pp. 1-7.

B1: rTPA: recombinant tissue plasminogen activator, thrombolytic serine protease (protein, UniProt P00750 36-562, looked up)
Tissue-type plasminogen …: SYQVICRDEKTQMIYQQHQSWLRPVLRSNRVEYCWCNSGRAQCHSVPVKSCSEPRCFNGGTCQQALYFSDFVCQCPEGFAGKCCEIDTRATCYEDQGISYRGTWSTAESGAECTNWNSSALAQKPYSGRRPDAIRLGLGNHNYCRNPDRDSKPWCYVFKAGKYSSEFCSTPACSEGNSDCYFGNGSAYRGTHSLTESGASCLPWNSMILIGKVYTAQNPSAQALGLGKHNYCRNPDGDAKPWCHVLKNRRLTWEYCDVPSCSTCGLRQYSQPQFRIKGGLFADIASHPWQAAIFAKHRRSPGERFLCGGILISSCWILSAAHCFQERFPPHHLTVILGRTYRVVPGEEEQKFEVEKYIVHKEFDDDTYDNDIALLQLKSDSSRCAQESSVVRTVCLPPADLQLPDWTECELSGYGKHEALSPFYSERLKEAHVRLYPSSRCTSQHLLNRTVTDNMLCAGDTRSGGPQANLHDACQGDSGGPLVCLNDGRMTLVGIISWGLGCGQKDVPGVYTKVTNYLDWIRDNMRP
- mortality 24 hours later: 44%

From patent US20120027687A1, “FATTY ACID PROTEIN KINASE C ACTIVATORS AND ANTICOAGULANT FOR THE TREATMENT OF STROKE” (priority 2010, published 2012)
